Assay results published in patent publication US20220313789A1, “TARGETING MELANOCORTIN 3 RECEPTOR FOR TREATMENT/PREVENTION OF EATING, METABOLISM, AND/OR EMOTIONAL DISORDERS” (The Regents of the University of Michigan, priority 2019, published 2022).
“Also recorded” adds a separate entry of the source. Bridge positions count the residues as written; N and C are the ends. Square brackets hold non-standard residues; d marks the D form. d2Nal = N[C@H](Cc1ccc2ccccc2c1)C(=O)O; Nle = CCCC[C@H](N)C(=O)O

How the values were obtained:
MC3R [1] = molecular target: T1, MC3R (Mus musculus, UniProt P33033); assay: MC3R agonist feeding assays (food intake, body weight) in WT mice; assay type: in vivo
T1 construct: from tissue; host or cells: living mice (C57/BL6J background), central nervous system / hypothalamus
T1 sequence (P33033 whole entry): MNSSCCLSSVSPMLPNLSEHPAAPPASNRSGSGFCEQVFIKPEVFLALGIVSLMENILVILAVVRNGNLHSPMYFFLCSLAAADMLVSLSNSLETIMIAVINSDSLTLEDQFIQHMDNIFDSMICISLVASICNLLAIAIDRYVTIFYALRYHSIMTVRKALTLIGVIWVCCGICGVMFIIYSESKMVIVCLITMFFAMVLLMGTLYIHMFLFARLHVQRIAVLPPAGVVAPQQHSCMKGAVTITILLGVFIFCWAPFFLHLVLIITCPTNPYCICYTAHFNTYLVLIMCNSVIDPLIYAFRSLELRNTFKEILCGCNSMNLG
Procedure: Clozapine-N-Oxide (CNO) was purchased from Enzo Life Sciences. On the day of experiments fresh stock CNO (1 mg/0.1 ml) was prepared in water. CNO was administered via i.p. injections (200 ul Saline; 1 mg/kg). […] (5 ug; 500 nl DMSO).
Behavioral assays were performed on ad libitum fed mice. Mice were single caged for at least one week prior to starting feeding assays. Feeding assays were performed during the light period.
For peripheral administration of MC3R agonist compounds, mice were first habituated to vehicle injections (i.p.; saline in 10% DMSO; 200 ul) for 2-4 consecutive days. Following habituation and consecutive days of stable food intake in response to vehicle injections, agonist compounds were administered (i.p.; 10 mg/kg; saline in 10% DMSO). Food intake was measured following drug or vehicle administration by carefully removing food from the food hopper and weighing on a scale. Cages were changed daily during acute feeding assays to prevent spillage of food from the food hopper.
(§1) For central administration of MC3R agonist compounds we first administered vehicle injections (500 nl DMSO) for 2-4 consecutive days to habituate mice to handling and injection. […] Body weight was measured daily immediately prior to injections.

MC3R KO mice = assay: Feeding after i.c.v. administration in MC3R KO mice; assay type: in vivo
Procedure: FIG. 13. […] Data shown as mean+/−s.e.m. Panels A and B analyzed with Student's paired t-test. n=9 mice for panels A and B.
B: 24-hour food intake following administration of vehicle (aCSF) or C18 to WT mice. […] C: Change in BW following injection of vehicle or C18 (5 ug). D and E: Cumulative food intake (D) and 24-hour food intake (E) following C18 or vehicle administration in MC3R KO mice. […] F: Cumulative food intake following administration of the MC3R antagonist C11 or vehicle. […] G: 24-hour food intake in WT mice following administration of C11. H: Change in BW following injection of vehicle or C11 (5 ug). I and J: Food intake following i.c.v. injection of vehicle (DMSO, 500 nl) or C11 (5 ug, 500 nl) in MC3R KO mice. […] Data represents mean+/−s.e.m. […] Panels B, C, G, H, and J analyzed with unpaired Student's t-test. n=7 mice and n=8 mice for vehicle and C18 groups in panels A-C. n=19 mice for panels F and G. n=6 mice for vehicle and n=8 mice for C11 group in panel H. n=12 mice for vehicle and C18 group in panels D and E. n=8 mice for vehicle and C11 groups in panels I and J.
as §1

AgRP neurons = assay: Feeding after MC3R agonist with chemogenetic (hM4Di) inhibition of AgRP neurons; assay type: in vivo, mice
Procedure: FIG. 7. […] Either saline or CNO (1 mg/kg, i.p.) was administered fifteen minutes prior to i.c.v. injections. […] Data represented as mean+/−s.e.m.
A and B: Schematic of experimental strategy to express inhibitory DREADD virus in hypothalamic AgRP neurons (A) and representative image of DREADD transduced AgRP neurons (B). Scale bar, 200 um. C: Food intake following administration of C18 in the presence of saline or CNO (0.1 mg/kg, i.p.). […] D: RNAscope analysis of MC3R expression in WT and AgRP-MC3R KI mice. […] Scale bar, 500 um.
To inhibit AgRP neurons, the arcuate nucleus of AgRP-Cre mice was targeted with stereotaxic viral injections of Cre-dependent AAV viral vectors expressing the chemogenetic inhibitor hM4Di (FIG. 7).

MC3R [2] = molecular target: T1, MC3R; assay: Open field test; assay type: in vivo, mice
Procedure: (§2) Anxiety behavioral assays were performed in the following order with 2-4 days separated between each anxiety assay: elevated plus maze, open field test, novelty suppressed feeding test. Behavioral assays were performed during the light cycle between 10 am-5 pm. Open field and elevated plus maze testing was performed in ad libitum fed mice with one exception.
Open field tests were performed as previously described (Refs. 55-57; herein incorporated by reference in their entireties). Mice were placed in the corner of a 50 cm×50 cm open field chamber. The center of the arena was marked as the 25 cm×25 cm area in the center of the open field. Exploratory activity was recorded for five minutes using ANYmaze software (Stoelting). Entries to the center, time in the center, distance in the center, and total distance traveled were automatically recorded with video tracking software. For PG992 experiments, mice were randomly assigned to receive either vehicle or PG992 injections. One week later the order of treatments was reversed such that each mouse received both vehicle and PG992 treatment in random order. For DREADD mediated assays, mice were administered CNO on the day of testing. Differences in open field activity between DREADD transduced mice and WT littermates were compared on testing day in response to CNO treatment. Similarly, MC3R KO and WT mice were testing in the open field on the same day in random order and differences in exploratory activity were calculated as previously described.

MC3R [3] = molecular target: T1, MC3R; assay: Elevated plus maze; assay type: in vivo, mice
Procedure: as §2
To perform elevated plus maze tests mice were initially placed into the closed arm of the elevated plus maze arena. The arena consisted of 2 50 cm long arms. One arm was enclosed by walls while the other arm was open. Activity in the maze was recorded for five minutes using animal tracking software (ANYmaze, Stoelting). Latency to enter the open arms, total distance traveled, entries to open arms, time in open arms, and distance traveled in the open arms was automatically calculated using tracking software. Treatment schedules for the elevated plus maze were identical to those described for the open field test.

MC3R [4] = molecular target: T1, MC3R; assay: Novelty suppressed feeding test; assay type: in vivo, mice; settings: i.c.v., NSF test
Procedure: as §2
Prior to testing, mice were fasted overnight (6 pm-10 am). NSF testing was performed in the open field arena described above. Briefly, a single pellet of food (3-4 grams) was placed in the center of the open field. Mice were placed in the corner of the open field and their activity was automatically scored for ten minutes using animal tracking software. Latency to eat the food was manually recorded during testing. Feeding was scored as five consecutive seconds of chewing on the food.

[5] = i.c.v. 5 ug in 500 nl DMSO vs vehicle
[6] = 5 ug, i.c.v., elevated plus maze

With “Ac-Nle-c[Asp-Trp-Pro-DNal(2′)-Arg-Trp-Lys]-NH2 (Ac-[Nle]DWP[d2Nal]RWK-NH2; lactam 2-8) [PG992]” as the substance, how does the weight gain (MC3R [1]; 3 days of treatment) read?
Its weight gain is 8%.

And the “24 h food intake” value (MC3R [1]; PG990 series of peptides, route not given in the sentence)?
Its value is “increases 24 h food intake”.

What about the “stimulation of food intake” value (MC3R [1]; central injection (i.c.v.), 5 μg) of the same substance?
The value was ~50%.

What about the “24-hour food intake compared with chemogenetic (DREADD) neuron activation” value (MC3R [1]; i.c.v. PG992 vs CNO/hM3Dq) of the same substance?
The value was “increased 24-hour food intake to a greater extent than chemogenetic activation of AgRP neurons; also recorded: even more potent inducer of 24 h food intake than DREADD activation of MC3R ARC neurons; also recorded: produced a greater change in 24-hour food intake than AgRP neuron activation”.

What about the “Feeding in response to central administration” value (MC3R [1]; i.c.v., 5 ug in 500 nl DMSO, vs vehicle) of the same substance?
Its value is “acutely stimulated feeding at all measured time-points”.

And the “Food intake at 4 and 24 hours” value (MC3R [1]; i.c.v., 5 ug, single injection)?
The value was “increased food intake at both 4 hours and 24 hours post injection”.

What about the “increase in body weight each treatment day” value (MC3R [1]; once daily i.c.v. injections) of the same substance?
Its value is 2-3%.

What about the Daily food intake (MC3R [1]; once daily i.c.v. injections (5 ug)) of the same substance?
Its Daily food intake is “increased daily 24-hour food intake on each day of treatment”.

What about the “duration of food intake stimulation” value (MC3R [1]; single i.c.v. injection) of the same substance?
The value was “at least 24 hours”.

And the 24-hour food intake (MC3R KO mice; [5])?
Its 24-hour food intake is “No significant difference in 24-hour food intake”.

And the Acute food intake (MC3R KO mice; [5])?
Its Acute food intake is “No significant difference in food intake”.

What about the body weight (MC3R KO mice; icv) of the same substance?
Its body weight is “no activity on food intake or body weight”.

What about the food intake (MC3R KO mice; icv) of the same substance?
Its food intake is “no activity on food intake or body weight; also recorded: No effect on food intake”.

What about the “PG992 induced stimulation of food intake under AgRP neuron inhibition” value (AgRP neurons; CNO (1 mg/kg, i.p.) before PG992 5 ug i.c.v., hM4Di in AgRP neurons) of the same substance?
Its value is “significantly reduced the ability of PG992 to stimulate feeding; also recorded: significantly reduced in the presence of AgRP neuron inhibition”.

And the “4-hour, 8-hour and 24-hour food intake” value (AgRP neurons; PG992 5 ug i.c.v., saline or CNO (1 mg/kg, i.p.) fifteen minutes before)?
The value was “robustly stimulated food intake at 4 hours, 8 hours, and 24 hours; also recorded: increased food intake following both saline and CNO injections at all time-points”.

And the “distance traveled in the center” value (MC3R [2]; 5 ug, i.c.v.)?
The value was “increased the distance traveled in the center; also recorded: increased distance traveled in the center”.

What about the “entries in the center” value (MC3R [2]; 5 ug, i.c.v.) of the same substance?
Its value is “increased entries to the center; also recorded: increased distance traveled in the center and entries in the center”.

And the “latency to enter the center” value (MC3R [2]; 5 ug, i.c.v.)?
Its value is “decreased the latency to enter the center; also recorded: reduced latency to enter the center of the arena”.

And the total distance traveled (MC3R [2]; 5 ug, i.c.v.)?
The total distance traveled was “Total distance traveled was also increased”.

What about the anxiolytic activity (MC3R [2]; ICV, elevated plus maze, and novelty suppressed feeding assay) of the same substance?
Its anxiolytic activity is “clear anxiolytic activity”.

What about the “Entries to the open arms” value (MC3R [3]; [6]) of the same substance?
The value was “trended towards being higher; also recorded: entered the open arms more frequently”.

And the “distance traveled in the open arms” value (MC3R [3]; [6])?
Its value is “increasing distance traveled in the open arms; also recorded: traveled more distance in the open arms”.

And the “latency to enter the open arms” value (MC3R [3]; [6])?
The value was “decreasing latency to enter the open arms; also recorded: entered the open arms faster”.

And the total distance traveled (MC3R [3]; [6])?
Its total distance traveled is “increased total distance traveled in the elevated plus maze”.

What about the distance traveled (MC3R [4]) of the same substance?
Its distance traveled is “without significantly effecting total distance traveled; also recorded: did not affect distance traveled”.

What about the latency to eat (MC3R [4]) of the same substance?
Its latency to eat is “decreased latency to feed; also recorded: reduced latency to eat”.

What about the total time eating (MC3R [4]) of the same substance?
Its total time eating is “increased total time eating”.

Which “Food intake, cumulative/acute and 24-hour” value (MC3R KO mice; i.c.v. 5 ug vs vehicle) does the source give for “Ac-Arg-Arg-(pI)DPhe-Tic-NH2 [compound 18]” here?
The value was “No difference in food intake was detected following C18 administration”.

And the “Food intake in the presence of saline or CNO” value (AgRP neurons; C18, CNO 0.1 mg/kg, i.p., inhibitory DREADD in AgRP neurons)?
The value was “increased food intake following administration of saline but not following CNO mediated inhibition of AgRP neurons”.

How did the “anxiety in the elevated plus maze assay” value (MC3R [3]; single peripheral injection) turn out when “H-Tyr-Val-Met-Gly-His-Phe-Arg-DTrp-Asp-Arg-Phe-Gly-OH [D-Trp8-γ-MSH]” was run?
The value was “trend towards reduction of anxiety”.
